From publication PMC9584410, “Structure of Klebsiella pneumoniae adenosine monophosphate nucleosidase” (PLoS ONE, 2022)
One block for each molecule: values may come before it.

Legend:
[1] = molecular target: Klebsiella pneumoniae adenosine monophosphate nucleosidase (Klebsiella pneumoniae); experiment: cryo-EM structure; purified KpAmn vitrified on a C-flat grid (Vitrobot, 4°C, >90% humidity), Titan Krios 300 kV; apo; D3 symmetry confirmed by ab initio models and enforced in refinement
purified protein = substrate: Nc1ncnc2c1ncn2[C@@H]1O[C@H](COP(=O)(O)O)[C@@H](O)[C@H]1O; experiment: purified protein; format: biochemical, Klebsiella pneumoniae; details: 25 °C, 20 mM HEPES pH 7.5, 100 mM NaCl, 1 mM MnCl2, no ATP activator listed

stoichiometry N [1]: 6
Molecule: Klebsiella pneumoniae adenosine monophosphate nucleosidase (enzyme)

B1: KpAmn (K. pneumoniae adenosine monophosphate nucleosidase) (Klebsiella pneumoniae) (protein)
chain: MNIKAASLTPEQALAELEARYEASVTALRKAIGDYIDHNTLPDTEARAEGLFVYPQLSVSWDGADHKALKTRAWGRFTHAGCYTTTITNPKLFRNYLLEQLTLLYQDYGAHISVELSQHEIPYPYVIDGSTLTLDRSMSAGLTRYFPTTELSQIGDETADGLFHPTEFYPLSHFDARRVDFSLARLRHYTGTPAEHFQPYVLFTNYTRYVDEFVSWGCSQILDPDSPYIALSCAGGIWITAETEAPEQAISDLAWKKHQMPAWHLITHDGKGITLINIGVGPANAKTICDHLAVLRPDVWLMIGHCGGLRESQAIGDYVLAHAYLRDDHVLDAVLPPDIPIPSIAEVQRALYDATKQVSGMPGEEVKQRLRTGTVVTTDDRNWELRYSASALRFNLSRAVAIDMESATIAAQGYRFRVPYGTLLCVSDKPLHGEIKLPGQANRFYEGAISEHLQIGIRAIDLLRAEGDHMHSRKLRTFNEPPFR
notes: expressed in E. coli BL21(DE3) R3 Rosetta; homohexamer, D3 symmetry; active site from two chains
Km (purified protein): 390 µM
